# According to the DeepSol protein solubility set:
# Experiment: soluble on expression in E. coli; label from the status in PepcDB or PDB records
row,Sequence,soluble on expression in E. coli
1,ATALQCFCHLCTKDNFTCVTDGLCFVSVTETTDKVIHNSMCIAEIDLIPRDRPFVCAPSSKTGSVTTTYCCNQDHCNKIELPTTV,soluble
2,MGSDKIHHHHHHMSKTIQAITNQIWSMANELRGNMDASEYKNYILAFMFYRYLSEHQERFLVEDEIISPAPGETVQDAYVREAVGNDLVEHLENTASHLGYAIEPEDTWARLVAKIDNSEIVASDYQTIFDHFNANVELNRDAMEDFRGVFNDINLGDSRLGNSTVARAKSLNSIVKLIDSIEYKNDEGKDILGEIYEYLIGQFAASAGKKGGEFYTPHQVSKILAKIVTLGLEKSDTSFSVYDPTMGSGSLLLTVRNELPQGQHIKFYGQEMNTTTYNLARMNLMMHQVSYSNMILNNADTLESDWPDGVDELGIDQPRSFDAVVANPPYSAKWDNRESKLKDPRFMEYGKLAPASKADFAFILHSLYHLNNTGTMAIVLPHGVLFRGAAEGHIRKLIIEKNYLDAVIGLPANLFYGTGIPTTILVFKKNRQTKDVFFIDASKEFEKGKNQNHLSDDMVEKIVETYHNRQSVDKYAHLASIEEIVENDYNLNIPRYVDTFEEEEEIDLGQVTQQLEQDRLEIRALEDKIRQQLKTLGVDF,not soluble
3,THCHLKNGEYHIDLIPQRLRGEIASFDIHVPETGELIVEQGRRITARHIKQMEKSQMQDLVVPRDYLIGKTLAKNIIDTSTGEFLAQANDEITEELLDAMANHG,not soluble
4,MSLGPVVHQTSSRFRRRSAQPTWDMSDGCADAIAFRVDSEGIKLHGFGIYLPTEPDRRNFVGEIMMLSPDSSEKWTCLLRVTAEMSSEEKEVGIVRFPEYVLLSPGVTYAVKVNMMKNTKTFCGEGGVTQVHLLNGARLFFSGCSMSQNGTTVQRGQLPYLIYSILDQSNSLQIKQEGHHHHHH,soluble
5,MLSVEKFRVGERVVWIGVIFSGRVQGIAFAFDRGTLMKRIHDLAEHLGKRGVSISLDVQPSDYPEKVFKVLIGELDNASFLRELSFEGVTPFEKKVYEWLTKNVKRGSVITYGDLAKALNTSPRAVGGAMKRNPYPIVVPCHRVVAHDGIGYYSSGIEEKKFLLEIEGVKEWTS,soluble
6,MGSDKIHHHHHHMPENDFFAGIDAQLDTWEFRTLADAFKPRPPLQYAITGLFTLPSLTIVFGAPGTLKSMLLGSAALHVAGGLPWLGRKVKAFPTMWLDMDNGKRRTDERFEALARHLGLNEGTPFFYISMPTPMFNAGDTGDTEAMVNRMISRGIKLLFIDNLGLISPGADENSDAMVKVMGNLRLLAERTDAAVVIIHHQRKKSKQTQTARTGETLRGHSSIEASLDLALLVEREFDSDIITVHSTKTRDTEVRPFAAEWRYEHKPGTDELETAGFVSAEGENSSETVLEKAIIETVSSNALINQTKLKDDVMKLTGIGRNQVINMIRALEVRKALNVKPGSNNEKLYYIE,not soluble
7,PAFALTSPWAGSDAAAIPDHGTVCKGQWQGQEVLGMRVTWDKRYITLAPVCTLLGLAFRLYDPDGLLGGRKDLGITCALVPHDHPGVDTGRRHFPLNAMFMNGPTRGTDVFMPLEFIIDG,not soluble
8,MGGSHHHHHHGMASALAMAPSPSLVQVYTSPAAVAVWEWQDGLGTWHPYSATVCSFIEQQFVQQKGQRFGLGSLAHSIPLGQADPSLAPYIIDLPSWTQFRQDTGTMRAVRRHLFPQHSAPGRGVVWEWLSDDGSWTAYEASVCDYLEQQVARGNQLVDLAPLGYNYTVNYTTHTQTNKTSSFCRSVRRQAGPPYPVTTIIAPPGHTGVACSCHQCLSGSRTGPVSGRYRHSMTNLPAYPVPQHPPHRTASVFGTHQAFAPYNKPSLSGARSAPRLNTTNAWGAAPPSLGSQPLYRSSLSHLGPQHLPPGSSTSGAVSASLPSGPSSSPGSVPATVPMQMPKPSRVQQALAGMTSVLMSAIGLPVCLSRAPQPTSPPASRLASKSHGSVKRLRKMSVKEATPKPEPEPEQVIKNYTEELKVPPDEDCIICMEKLSTASGYSDVTDSKAIGSLAVGHLTKCSHAFHLLCLLAMYCNGNKDGSLQCPSCKTIYGEKTGTQPQGKMEVLRFQMSLPGHEDCGTILIVYSIPHGIQGPEHPNPGKPFTARGFPRQCYLPDNAQGRKVLELLKVAWKRRLIFTVGTSSTTGETDTVVWNEIHHKTEMDRNITGHGYPDPNYLQNVLAELAAQGVTEDCLEQQ,not soluble
9,MGAMESLRWMEARLPEILKDLEAFVRRESPSGDLEGLEAAARFLEEAFGPLEGRLSRKDTPAGPVLLLKREGEGAPVLLLCHYDTVHPKGSFPEPFRLEREKAIGPGVYDMKGGIIALLYALRYAEATGRRLPALEVLFTPDEEVGSPESRPLIEAAAKKARAVLVLEPPTAEGHLKVARKGVGLYRLRAIGKAAHQGVEPEKGVNAILELAHQVLKVAALEDREKGTTLGPNRIRGGTATNVVAEEAEVEIDLRAWTLEEVQRVEEGLKALKPVLPGARLVLSGGLNRPPMEPTEASLALFAKARAIGEALGLRLEPGRVGGGSDGNFTAALGVPTLDGLGLFGGNAHQKTEYVVVPEIPRRTALLAELLAAL,soluble
10,MGSDKIHHHHHHMKKFTLDYLSPRVVFGAGTASALPDEIGRLGARRPLVLSSPEQRELAKDIVRPIGDRVAGYFDGATMHVPVDVIQKAERAFNDTDADSIIAIGGGSTTGLAKILSMNLDVPSLVIPTTYAGSEMTTIWGVTEGGMKRTGRDPKVLPKTVIYDPLLTVDLPLAISVTSALNAIAHAAEGLYSADLNPVLETMCKQGICALFDAIPRLVAKPTDAEARTDALFGAWMCGTALCHLGMGLHHKLCHTLGGTLNLPHAETHAIVLPHALAYNLPYAAPAERLLQEVAGSSDVPSALYDLARNAGAPLSLAEIGMRPEDIPRVRDLALRDQYPNPRPLESDALETLLVNAFRGRRPDFK,not soluble
11,MTLPRLILPLLIAAACALGGCAYNPDLGRDQLLIVNDNNLARDGEKAWADALRTSHVSKEPRKNARVQAVGQRVIVAAGLAGRPWEYAVFLEEAPNAFVLPGGYVGVTVGLLSLVENDDQLAAVIGHEAGHVVARHAAERVSQETTSKVLLGIAKAAAGGTEFGKLLKDHGEDATRYGLLLPFSRKQELEADKLGVDFMQRAGYRPREAVKLWRNMQALDGGKSGGDLGSTHPSDAVRIQELERYLASKGWLEHHHHHH,not soluble
12,MSGATPVFTEINQIQGTGDKSPLISSGFISDDEYFVQGVVTARGESLLKGFYLQGLNDDFDPNSSEGIFVSTGSAPSLEIQPGALVCVKAKVQEYYGQTQLKPDTNNFLVQGHQAPVSVTELTINENETLAQALERHEGMQVKLTSHSDLRITRNFSFDYASKRNNMVLSHGEPLFKPTQLFAAESPEAIQLAEENAKRQITIESDNKAPNGEVPYFPDFATDSNQDGSADSYLRLGARIEGLEGVIAYSYGQYRLVTTNTISQENIITQAFDEDGDTLFNVERTDEPSIDDADLTITSFNVLNYFTSVAAGGLEHHHHHH,not soluble
13,MGHHHHHHSHMVSPSKAVIVPGKIGGDETTHGWYGWVKKELEKIPGFQCLAKNMPDPITARESIWLPFMETELHCDEKTIIIGHSSGAIAAMRYAETHRVYALILVSAYTSEFGDENERASGYFSRPWQWEKIKANCPHIVQFGSTDDPFLPWKEQQEVADSWTPNCTNSLTVVTFRTQSSMN,not soluble
14,MGGSHHHHHHGMASALASYFDEHDCEPSDPEQETRTNMLLELARSLFNRMDFEDLGLVVDWDHHLPPPAAKTVVENLPRTVIRGSQAELKCPVCLLEFEEEETAIEMPCHHLFHSSCILPWLSKTNSCPLCRYELPTDDDTYEEHRRDKARKQQQQHRLENLHGAMYT,not soluble
15,MTEHLLAMNQKLKNPDEALSLFGNQDSFLKLMEKDLNLNIITRGETIYVSGDDESFQIADRLLGSLLALIRKGIEISERDVIYAIKMAKKNELEYFESMYEEEITKNAKGKSIRVKTMGQREYVAAMKRNDLVFGIGPAGTGKTYLAVVKAVHALKNGHIKKIILTRPAVEAGESLGFLPGDLKEKVDPYLRPLYDALHDVLGADHTERLMERGIIEIAPLAYMRGRTLDDAYVILDEAQNTTPAQMKMFLTRLGFSSKMIITGDVSQIDLPKGVKSGLAVAKEMLKGIDGISMIELDQTDVVRHPLVAKIIEAYDKQN,not soluble
16,MGHHHHHHSHMSIPSSQYGFVFNKQSGLKLRNDLPVHKPKAGQLLLKVDAVGLCHSDLHVIYEGLDCGDNYVMGHEIAGTVAAVGDDVINYKVGDRVACVGPNGCGGCKYCRGAIDNVCKNAFGDWFGLGYDGGYQQYLLVTRPRNLSRIPDNVSADVAAASTDAVLTPYHAIKMAQVSPTSNILLIGAGGLGGNAIQVAKAFGAKVTVLDKKKEARDQAKKLGADAVYETLPESISPGSFSACFDFVSVQATFDVCQKYVEPKGVIMPVGLGAPNLSFNLGDLALREIRILGSFWGTTNDLDDVLKLVSEGKVKPVVRSAKLKELPEYIEKLRNNAYEGRVVFNP,soluble
17,GGQIVHTETTEVVLCGDPLSGFGLQLQGGIFATETLSSPPLVCFIEPDSPAERCGLLQVGDRVLSINGIATEDGTMEEANQLLRDAALAHKVVLEVEFD,soluble
18,MGSSHHHHHHSSGLVPRGSHMEPAATTYGTSTSVGVHNAYEKEKYRYFADALDSGAALLELDLWSNALGRSWRVSHSNPLGNNSNCEGAANASELRTKSRDQDFAGCLSDMRAWHDAHPGHRPILLKIEMKDGFNAKGGRGPAEFDALIRQKLGDAVYGPGDLTGGHATADEAVRAGGWPSRADLAGKFLFELIPGTVEEKNPFDKLWTDVEYAGHLKDLAAQGKLAQSTAFPAVHGAAPGDPRERYADPALRPWFVVFDGDAATYLNGSIDTSWYDTRHYLLIMTDAHNVPPVIDGTHPTEAEALARVRQLAAAHASFATADWYPLPSVLKTVVPRGA,soluble
19,MGSDKIHHHHHHMYTDADRSREVVPEKDGHDKKWRDEFGRDYGRIIHSASFRRQQGKTQVFPSRESDFFRNRLTHSLEVAQIAQGIAERINYDYDKDLGGKIDPRLCATAGLVHDIGHPPFGHNGESALDKAMQRYGGFEGNAQTLRILTRLEKKLRYAEPLAGDDRAGLNLCHRTIAATLKYDNEIPAIRKAADGFVKGYYGSEKIIVDRVKASVLNGYVLGAEEKFCTIECSIMDLADDIAYSVYDLEDCFKVGFLSPAEMLASDDALLSAVAKRASKPMKRTVTINEIQAVFMEIFSEIIEQPAEDADSPLDGIVIEDDIAQQAKRDESLLTFAEAYRTSKVMSEDGYKRTEFSSELVHQFISGVELKAHKECPSLSQIYLPEKLMLRKEVLKQYTFVAAIYAPRVKLGEYRGYDLVTDIFKALMGDRGDLLMPADVRGRIRKAPNVSVKAREVCDFVAGMTDRYAMEFWARLNSDAAESMFKPI,not soluble
20,MGSDKIHHHHHHMSKFKVKRLTAHILMLKVINDMLKYSFHLTLTQVKLLNLLVKYDNSDSNSASIDRLLKMKEIQSKMALLQMLSYLNNHQWLLKGRDQRDQRKLTISINKMHIDKIEYMNNELSDYIERYFGQYTFDFSCDYVSYLLSSQELFRNLKCYLNMCQLTLEELYVLGILNLHKGQLTVKELQGEFHHPIFAVSPILKCLILKGLVKKERCELDERRVIVTIKREKFSKVTMLIQACYNYLEKGIQVKLNNK,not soluble
21,MGSDKIHHHHHHMNNTPTPPKVLLLLTSLHGGGAERVAVHLLNRLQGRFDMRMGLLRASGPYLDQADRSRLIVAPEGETHFNFDGPNSANYRPGKLVGSAVRAPLAFRRMIRETQPDVVLSFLKGTNLLVWLALMNMGRARPRWIAREGNNVLAVIREEAPNGAVARASRDLTAKAYRRADAVLANSTDMAAGLITDLDLDPAKMRMINNPIDIDGIREAAGESLPGAPNRPFILTAGRLEYQKAHEVLLRAFARSEAWRTHALVILGKGSRLGELHRLAAQLGIGEYVRFIGFVPNPYAWMARADLFVLPSRWEGFPTVAAEAMACGTPLLLTDCRFGARDIVEPGVTGELVPVNDEAALATEIAALLASPERRSALARAGREKVERFRLERMLEAYAALFDEQFAARRR,not soluble
